Measured values reported in paper PMC11417362, “Template-independent synthesis and 3′-end labelling of 2′-modified oligonucleotides with terminal deoxynucleotidyl transferases” (Nucleic Acids Research, 2024).

What was measured:
[1] = substrate: Nc1ncnc2c1ncn2[C@@H]1O[C@H](COP(=O)(O)OP(=O)(O)OP(=O)(O)O)[C@@H](O)[C@H]1F; assay: steady-state primer extension, denaturing PAGE, Michaelis-Menten fit; format: biochemical, Bos taurus; conditions: 100 nM ssDNA primer FAM-18G, 10 mM Mg(OAc)2, 1x TdT buffer (100 mM KCl, 30 mM Tris-acetate, 0.05% Triton X-100), pH 7.5, 37°C
Description: (§1) steady-state primer extension, denaturing PAGE, Michaelis-Menten fit on bovine TdT

[2] = substrate: Nc1nc2c(ncn2[C@@H]2O[C@H](COP(=O)(O)OP(=O)(O)OP(=O)(O)O)[C@@H](O)[C@@H]2F)c(=O)[nH]1; assay: as above; format: biochemical, Bos taurus; conditions: 100 nM ssDNA primer FAM-18G, 10 mM Mg(OAc)2, 1x TdT buffer (100 mM KCl, 30 mM Tris-acetate, 0.05% Triton X-100), pH 7.5, 37°C
Description: as §1

[3] = substrate: Nc1ccn([C@@H]2O[C@H](COP(=O)(O)OP(=O)(O)OP(=O)(O)O)[C@@H](O)[C@@H]2F)c(=O)n1; assay: as above; format: biochemical, Bos taurus; conditions: 100 nM ssDNA primer FAM-18G, 10 mM Mg(OAc)2, 1x TdT buffer (100 mM KCl, 30 mM Tris-acetate, 0.05% Triton X-100), pH 7.5, 37°C
Description: as §1

[4] = substrate: Nc1ncnc2c1ncn2[C@@H]1O[C@H](COP(=O)(O)OP(=O)(O)OP(=O)(O)O)[C@@H](O)[C@@H]1F; assay: as above; format: biochemical, Bos taurus; conditions: 100 nM ssDNA primer FAM-18G, 10 mM Mg(OAc)2, 1x TdT buffer (100 mM KCl, 30 mM Tris-acetate, 0.05% Triton X-100), pH 7.5, 37°C
Description: as §1

[5] = substrate: O=c1ccn([C@@H]2O[C@H](COP(=O)(O)OP(=O)(O)OP(=O)(O)O)[C@@H](O)[C@@H]2F)c(=O)[nH]1; assay: as above; format: biochemical, Bos taurus; conditions: 100 nM ssDNA primer FAM-18G, 10 mM Mg(OAc)2, 1x TdT buffer (100 mM KCl, 30 mM Tris-acetate, 0.05% Triton X-100), pH 7.5, 37°C
Description: as §1

[6] = substrate: Nc1ccn([C@H]2C[C@H](O)[C@@H](COP(=O)(O)OP(=O)(O)OP(=O)(O)O)O2)c(=O)n1; assay: as above; format: biochemical, Bos taurus; conditions: 100 nM ssDNA primer FAM-18G, 10 mM Mg(OAc)2, 1x TdT buffer (100 mM KCl, 30 mM Tris-acetate, 0.05% Triton X-100), pH 7.5, 37°C
Description: as §1

[7] = substrate: Nc1nc2c(ncn2[C@@H]2O[C@H](COP(=O)(O)OP(=O)(O)OP(=O)(O)O)[C@@H](O)[C@H]2F)c(=O)[nH]1; assay: as above; format: biochemical, Bos taurus; conditions: 100 nM ssDNA primer FAM-18G, 10 mM Mg(OAc)2, 1x TdT buffer (100 mM KCl, 30 mM Tris-acetate, 0.05% Triton X-100), pH 7.5, 37°C
Description: as §1

purified protein = substrate: Nc1ncnc2c1ncn2[C@H]1C[C@H](O)[C@@H](COP(=O)(O)OP(=O)(O)OP(=O)(O)O)O1; assay: purified protein; conditions: 100 nM ssDNA primer FAM-18G, 10 mM Mg(OAc)2, 1x TdT buffer (100 mM KCl, 30 mM Tris-acetate, 0.05% Triton X-100), pH 7.5, 37°C
[8] = substrate: CO[C@@H]1[C@H](O)[C@@H](COP(=O)(O)OP(=O)(O)OP(=O)(O)O)O[C@H]1n1ccc(N)nc1=O; assay: purified protein, by the assay type; design: Steady-state single-nucleotide incorporation into primer FAM-18G, denaturing PAGE band quantification, Michaelis-Menten fit
Description: (§2) The steady-state kinetic experiments were performed as described previously with minor modifications ([61]). A 2× reaction solution was prepared by mixing 200 nM primer FAM-18G, 0–128 μM 2′-modified NTP and 20 mM Mg(OAc)2 in 2× TdT buffer. A 5 μl aliquot of pre-warmed 2× reaction solution was mixed with 5 μl of bovine TdT, MTdT-evo or murine TdT of varying concentration, and incubated at 37°C for a certain time. The reaction was then quenched by the addition of 10 μl of 2× TBE-urea sample buffer and incubation at 95°C for 10 min. The products were analysed with 20% denaturing PAGE gels containing 8 M urea. All gel bands were quantified using Quantity One analysis software (Bio-Rad). Km and kcat values were calculated by fitting the data to the Michaelis–Menten equation with GraphPad Prism 8 software. To quantify the activities of different TdTs for the incorporation of 2′-modified NTPs, steady-state kinetic experiments were carried out.

[9] = substrate: CO[C@@H]1[C@H](O)[C@@H](COP(=O)(O)OP(=O)(O)OP(=O)(O)O)O[C@H]1n1cnc2c(=O)[nH]c(N)nc21; assay: purified protein, by the assay type; design: Steady-state single-nucleotide incorporation into primer FAM-18G, denaturing PAGE band quantification, Michaelis-Menten fit
Description: as §2

[10] = substrate: O=c1ccn([C@@H]2O[C@H](COP(=O)(O)OP(=O)(O)OP(=O)(O)O)[C@@H](O)[C@H]2F)c(=O)[nH]1; assay: purified protein, by the assay type; design: Steady-state single-nucleotide incorporation into primer FAM-18G, denaturing PAGE band quantification, Michaelis-Menten fit
Description: as §2

[11] = substrate: Cc1cn([C@H]2C[C@H](O)[C@@H](COP(=O)(O)OP(=O)(O)OP(=O)(O)O)O2)c(=O)[nH]c1=O; assay: purified protein, by the assay type; design: Steady-state single-nucleotide incorporation into primer FAM-18G, denaturing PAGE band quantification, Michaelis-Menten fit
Description: as §2

B1: bovine TdT (Bos taurus) (protein)
chain: MDPLCTASSGPRKKRPRQVGASMASPPHDIKFQNLVLFILEKKMGTTRRNFLMELARRKGFRVENELSDSVTHIVAENNSGSEVLEWLQVQNIRASSQLELLDVSWLIESMGAGKPVEITGKHQLVVRTDYSATPNPGFQKTPPLAVKKISQYACQRKTTLNNYNHIFTDAFEILAENSEFKENEVSYVTFMRAASVLKSLPFTIISMKDTEGIPCLGDKVKCIIEEIIEDGESSEVKAVLNDERYQSFKLFTSVFGVGLKTSEKWFRMGFRSLSKIMSDKTLKFTKMQKAGFLYYEDLVSCVTRAEAEAVGVLVKEAVWAFLPDAFVTMTGGFRRGKKIGHDVDFLITSPGSAEDEEQLLPKVINLWEKKGLLLYYDLVESTFEKFKLPSRQVDTLDHFQKCFLILKLHHQRVDSSKSNQQEGKTWKAIRVDLVMCPYENRAFALLGWTGSRQFERDIRRYATHERKMMLDNHALYDKTKRVFLKAESEEEIFAHLGLDYIEPWERNA
notes: recombinant, plasmid pET30a-bovine TdT, E. coli BL21(DE3)
Q: What does the source list for B1?
A: Km [1]: 0.97 ± 0.27 µM; kcat [1]: 0.00933 ± 0.0011 s⁻¹; kcat/Km [1]: 9620 M⁻¹ s⁻¹; Km [2]: 2.91 ± 0.52 µM; kcat [2]: 0.0638 ± 0.00417 s⁻¹; kcat/Km [2]: 22000 M⁻¹ s⁻¹; Km [3]: 2.83 ± 0.69 µM; kcat [3]: 0.0285 ± 0.00317 s⁻¹; kcat/Km [3]: 10100 M⁻¹ s⁻¹; Km [4]: 2.23 ± 0.32 µM; kcat [4]: 0.0443 ± 0.00717 s⁻¹; kcat/Km [4]: 19800 M⁻¹ s⁻¹; Km [5]: 2.63 ± 0.77 µM; kcat [5]: 0.0148 ± 0.00065 s⁻¹; kcat/Km [5]: 5630 M⁻¹ s⁻¹; Km [6]: 3.14 ± 0.46 µM; kcat [6]: 0.02 ± 0.001 s⁻¹; kcat/Km [6]: 6370 M⁻¹ s⁻¹; Km [7]: 4.03 ± 0.52 µM; kcat [7]: 0.0182 ± 0.000483 s⁻¹; kcat/Km [7]: 4500 M⁻¹ s⁻¹; Km (purified protein): 2.65 ± 0.76 µM; kcat (purified protein): 0.00517 s⁻¹; kcat/Km (purified protein): 1950 M⁻¹ s⁻¹; Km [8]: 5.87 ± 0.76 µM; kcat [8]: 0.0004 ± 5.83e-05 s⁻¹; kcat/Km [8]: 68.2 M⁻¹ s⁻¹; Km [9]: 6.10 ± 1.50 µM; kcat [9]: 0.000683 ± 2.17e-05 s⁻¹; kcat/Km [9]: 112 M⁻¹ s⁻¹; Km [10]: 5.33 ± 1.58 µM; kcat [10]: 0.00267 ± 0.000112 s⁻¹; kcat/Km [10]: 500 M⁻¹ s⁻¹; Km [11]: 4.19 ± 0.91 µM; kcat [11]: 0.0075 ± 0.000833 s⁻¹; kcat/Km [11]: 1780 M⁻¹ s⁻¹
